The results in this text go back to patent US20250074988A1 (SHANGHAI HUAOTA BIOPHARMACEUTICAL, published 2025).

Assay [1] deals with T1, human PD-L1 on CHO-K1-huPD-L1 cells (human, UniProt Q9NZQ7 19-290). The assay can be described thus: cell-based or functional assay.
Assay [2] has as its target T2, recombinant human PD-L1 protein (Item No. 10084-H08H, Sino Biological) (human, UniProt Q9NZQ7 19-238).
T2 construct: Bought protein; also called huPD-L1; human PD-L1 antigen
Kind of assay: SPR, Biacore 8K, antibody captured as ligand, PD-L1 analyte, 1:1 model. On the technique in general: SPR reads the build-up and loss of mass on a sensor chip optically.

In assay [3] the target is T2, recombinant human PD-L1 protein (Item …). The assay can be described thus: SPR, humanization screening.
Assay [4] deals with T3, human PD-L1-moFc recombinant protein (human).
T3 construct: also called free PD-L1
The assay can be described thus: flow cytometry, blocking of PD-L1-moFc binding to CHO-K1-huPD-1 cells. As for the experimental part:
The antibodies to be tested were diluted with 3-fold gradient, added at 20 μL/well into the 96-well plate with the antigen added, mixed well, and incubated at room temperature for 15 min. CHO-K1-huPD-1 cells overexpressing human PD-1 were added at 2×10⁴/well into the 96-well plate pre-incubated with antigen-antibody, mixed well, and incubated at room temperature for 15 min. The mixture was centrifuged at 300 g for 5 min, the supernatant was removed, and the cells were washed twice with FACS buffer. Anti-moFc-Alexa 488 (Item No.: 115-545-071, Jackson) secondary antibodies were diluted at 1:300, added, mixed well, and incubated at room temperature for 15 min. The cells were washed three times and measured on instrument for the fluorescence intensity on their surfaces.

Assay [5] deals with T2, recombinant human PD-L1 protein (Item …). The assay can be described thus: ELISA, humanization screening.
For assay [6] the target is unchanged. The assay can be described thus: SPR, Biacore 8K, antibody captured on anti-human chip, huPD-L1 analyte, 1:1 model. As for the experimental part: The Anti-Human Capture-CM5 chips (Item No.: BR-1005-30, GE) were prepared according to the coupling method of the Human Antibody Captrue Kit (Item No.: BR-1008-39, GE) and the amino coupling kit (Item No.: BR-1000-50, GE). The chips were equilibrated at room temperature for 20-30 min and assembled into the Biacore 8K instrument. B5D1 was diluted to the experimental working concentration with the equilibrium buffer. The antigen was diluted to 50 nM with the equilibrium buffer, and then diluted to give samples with 7 concentration gradients by 3× serial dilution, and 2 samples with zero concentration (i.e. the equilibrium buffer) and a duplicate sample with one concentration (typically, a duplicate sample with the minimum concentration) were set. According to the antibody, the antigen huPD-L1 (Item No.: 10084-H08H, Sino Biological), and the regeneration order, the samples with 10 antigen concentrations (2 with zero concentration, 7 with gradient concentrations and 1 with duplicate concentration) were subject to experimental analysis with an antigen injection flow rate of 30 μl/min, the binding time of 120 seconds, and the dissociation time of 600 seconds.

Assay [7] deals with T1, human PD-L1 on CHO-K1-huPD-L1 cells. Kind of assay: flow cytometry on CHO-K1-huPD-L1 cells; parent chimeric antibody. As for the experimental part: CHO-K1-huPD-L1 cells overexpressing human PD-L1 were plated in a 96-well plate at 2×10⁴/well, and the 3-fold serial gradient dilutions of the samples to be tested were added at 20 μl/well, and co-incubated with the cells at room temperature for 30 min. The cells were washed by centrifugation to remove unbound antibodies, and 20 μl of R-Phycoerythrin AffiniPure Goat Anti-Human IgG, Fcγ Fragment Specific (Item No.: 109-115-098, Jackson ImmunoResearch; diluted with 1% (w/v) BSA-PBS at 1:200) fluorescent secondary antibodies were added to each well, and incubated for 15 min. The cells were then washed twice, resuspended in 100 μl of 1% (w/v) BSA-PBS, and detected for their fluorescence intensity at 585 nm by flow cytometry (BD, FACS Cantoll) under 488 nm excitation.

T2 sequence (Q9NZQ7 19-238 limits assumed): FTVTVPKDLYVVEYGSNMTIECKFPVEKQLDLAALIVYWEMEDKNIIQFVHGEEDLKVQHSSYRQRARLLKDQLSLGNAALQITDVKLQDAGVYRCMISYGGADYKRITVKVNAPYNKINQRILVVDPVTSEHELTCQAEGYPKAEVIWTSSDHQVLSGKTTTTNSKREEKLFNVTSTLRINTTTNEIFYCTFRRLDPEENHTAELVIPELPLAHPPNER
T1 sequence (Q9NZQ7 19-290): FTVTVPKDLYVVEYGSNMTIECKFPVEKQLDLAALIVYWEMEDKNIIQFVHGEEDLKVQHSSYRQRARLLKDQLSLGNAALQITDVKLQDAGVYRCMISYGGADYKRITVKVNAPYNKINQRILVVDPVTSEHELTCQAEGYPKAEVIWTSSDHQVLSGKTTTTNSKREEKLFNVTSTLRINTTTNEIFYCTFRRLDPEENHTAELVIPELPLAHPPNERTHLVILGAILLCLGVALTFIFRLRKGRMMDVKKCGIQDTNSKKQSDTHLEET
T3 sequence (chain, as listed by the source limits assumed): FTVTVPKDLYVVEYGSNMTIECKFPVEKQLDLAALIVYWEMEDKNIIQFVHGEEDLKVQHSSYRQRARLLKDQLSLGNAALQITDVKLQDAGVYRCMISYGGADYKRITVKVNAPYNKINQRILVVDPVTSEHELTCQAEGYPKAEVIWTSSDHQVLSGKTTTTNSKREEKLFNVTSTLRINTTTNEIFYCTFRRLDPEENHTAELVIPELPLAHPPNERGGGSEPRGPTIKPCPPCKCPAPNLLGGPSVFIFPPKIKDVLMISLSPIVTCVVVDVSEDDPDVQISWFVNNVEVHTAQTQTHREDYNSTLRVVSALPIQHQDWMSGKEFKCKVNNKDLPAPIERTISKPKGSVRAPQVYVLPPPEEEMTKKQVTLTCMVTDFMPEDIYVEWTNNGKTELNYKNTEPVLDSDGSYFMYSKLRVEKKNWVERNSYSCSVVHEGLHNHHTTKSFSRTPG

B1: chimeric antibody 900245 (antibody, V domains shown)
VH: QIQLQQSGPELVKPGASVKISCKASGYTFTDYYINWVKQRPGQGLEWIGWIYLGSGNAKYNEKFKGKATLTVDTSSSTAYMHLSSLTSEDSAVYFCARCVGTYWYFDVWGAGTTVTVSS
VL: QILLTQSPATMSASPGEKVTMTCSASSSVSYMHWYQQKPGSSPKPWIYDTSNVASGFPARFSGSGSGTSYSLIISSMEAEDAATYYCHQRSSYPWTFGGGTKLEIK
notes: also called parent chimeric antibody; anti-PD-L1 human-mouse chimeric antibody
Turning to B1, the “EC50, T cell activation (NFAT-luciferase RLU, Jurkat-NFAT-PD-1-5B8 effector cells with CHO-K1-OS8-PD-L1-8D6 target cells)” value in assay [1] turned out to be 0.287 µg/mL. The Kd (in general, the equilibrium constant for the complex coming apart) was 0.346 nM in assay [2], 0.72 nM in assay [3] and 0.0773 nM in assay [6]. For the same molecule, the koff (as a rule, the rate constant with which the complex falls apart) in assay [2] worked out at 0.000127 s⁻¹; in assay [6] it was 9.54e-05 s⁻¹. Further, the kon (in general, the rate constant with which the complex forms) in assay [2] turned out to be 368000 M⁻¹ s⁻¹; in assay [6], 1.24e+06 M⁻¹ s⁻¹. Further, the IC50 (commonly the point on the concentration scale where inhibition reaches its midpoint) in assay [4] came out at 2.84 µg/mL. Moreover, the EC50 – broadly, the concentration that produces a half-maximal response – in assay [5] was 0.499 µg/mL; in assay [7], 0.125 µg/mL.
